Values quoted from earlier work, collected in PMC2589311.
Where two headings read alike, the source gives them in different places.

Columns and labels:
[1] = target: IL-1 receptor (synovial cells) (Homo sapiens) (UniProt P14778)
[2] = target: second IL-1 receptor, 68 kDa (RAJI cells) (Homo sapiens) (UniProt P27930)
[3] = target: IL-1 receptor (synovial cells) (Homo sapiens) (UniProt P14778); remark: listed apart in the source

Sequence of UniProt P14778 (P14778 18-569): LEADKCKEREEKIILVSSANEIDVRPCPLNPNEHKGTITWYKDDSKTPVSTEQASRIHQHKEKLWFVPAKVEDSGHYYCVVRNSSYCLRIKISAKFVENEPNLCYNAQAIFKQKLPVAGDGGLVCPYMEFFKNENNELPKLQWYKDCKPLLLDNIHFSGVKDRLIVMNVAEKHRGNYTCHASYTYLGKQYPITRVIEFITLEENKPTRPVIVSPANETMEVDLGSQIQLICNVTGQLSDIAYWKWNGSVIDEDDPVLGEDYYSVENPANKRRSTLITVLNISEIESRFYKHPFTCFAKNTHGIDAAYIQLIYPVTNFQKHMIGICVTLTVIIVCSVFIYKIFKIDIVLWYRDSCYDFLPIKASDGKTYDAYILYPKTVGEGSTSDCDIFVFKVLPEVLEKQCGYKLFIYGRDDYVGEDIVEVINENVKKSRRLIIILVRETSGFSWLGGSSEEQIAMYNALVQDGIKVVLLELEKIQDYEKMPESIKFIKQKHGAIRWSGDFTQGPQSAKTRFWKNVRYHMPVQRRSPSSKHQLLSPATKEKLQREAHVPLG
Sequence of UniProt P27930 (P27930 14-398): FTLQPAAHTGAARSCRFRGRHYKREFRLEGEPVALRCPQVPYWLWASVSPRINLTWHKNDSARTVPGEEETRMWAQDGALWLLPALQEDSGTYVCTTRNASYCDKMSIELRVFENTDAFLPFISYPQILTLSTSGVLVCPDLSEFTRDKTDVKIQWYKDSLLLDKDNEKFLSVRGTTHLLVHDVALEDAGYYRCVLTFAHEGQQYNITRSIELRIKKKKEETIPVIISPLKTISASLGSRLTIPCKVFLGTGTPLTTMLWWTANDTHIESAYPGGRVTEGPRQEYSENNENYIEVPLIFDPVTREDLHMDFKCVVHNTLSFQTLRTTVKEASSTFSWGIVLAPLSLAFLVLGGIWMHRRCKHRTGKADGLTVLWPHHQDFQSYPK

Row | Kd [1] [nM] | Kd [2] [nM] | Kd [3] [nM] | Substance
1 | 0.066 |  |  | IL-1alpha (from UniProt P01583)
2 |  | 2.2 | 0.004 | IL-1beta (from UniProt P01584)
